The chains are these.
B1: SCNN1D (parent)
chain: FLGHHSFSVRPGTEATISIREDEV
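Note: lentivirally expressed fusions sorted by FACS into six bins by GFP to DsRed ratio, PSI derived from sequencing read proportions per bin multiplied by bin number.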

Variants of B1 are the subject of this data set. The experiment in a line: protein stability index of a GFP-peptide fusion (GPS, HEK-293T) (PSI 1-6); higher = more stable. To be noted: c terminus: a fixed tail appended.
With FLGHHSFMVRPGTEATISIREDEV, the protein stability index was determined as 1.75. The value for FLGHHSFQVRPGTEATISIREDEV was 1.78; that for FLGHHSFNVRPGTEATISIREDEV was 2.4.

Regarding FLGHHSFRVRPGTEATISIREDEV, the protein stability index stood at 1.96. With FLGHHSFTVRPGTEATISIREDEV the figure was 1.62; with FLGHHSFYVRPGTEATISIREDEV, 1.86; with FLGHHSFEVRPGTEATISIREDEV, 2.48. With FLGHHSFCVRPGTEATISIREDEV the figure was 4.76; with FLGHHSFPVRPGTEATISIREDEV, 3.49; with FLGHHSFKVRPGTEATISIREDEV, 1.57.

Regarding FLGHHSFIVRPGTEATISIREDEV, the protein stability index was 2.04. The value for FLGHHSFFVRPGTEATISIREDEV was 1.37; that for FLGHHSFHVRPGTEATISIREDEV was 2.12. The value for FLGHHSFWVRPGTEATISIREDEV was 2.68; that for FLGHHSFAVRPGTEATISIREDEV was 3.59; that for FLGHHSFGVRPGTEATISIREDEV was 2.43. With FLGHHSFDVRPGTEATISIREDEV the figure was 3.02; with FLGHHSFLVRPGTEATISIREDEV, 1.65.

Regarding FLGHHSFVVRPGTEATISIREDEV, the protein stability index was found to be 1.8. With FLGHHSFSVRPTTEATISIREDEV, the protein stability index is 1.67.

For FLGHHSFSVRPPTEATISIREDEV, the protein stability index is 1.83. The value for FLGHHSFSVRPETEATISIREDEV was 1.88; that for FLGHHSFSVRPKTEATISIREDEV was 1.71; that for FLGHHSFSVRPMTEATISIREDEV was 1.85. Regarding FLGHHSFSVRPVTEATISIREDEV, the protein stability index is 1.57.

Consider FLGHHSFSVRPFTEATISIREDEV, for which the protein stability index worked out at 2.69. With FLGHHSFSVRPQTEATISIREDEV the figure was 1.56. The value for FLGHHSFSVRPITEATISIREDEV was 1.54.

For the variant FLGHHSFSVRPWTEATISIREDEV, the protein stability index was 1.42. With FLGHHSFSVRPATEATISIREDEV the figure was 2.2. For the variant FLGHHSFSVRPNTEATISIREDEV, the protein stability index was found to be 2.05.

For the variant FLGHHSFSVRPRTEATISIREDEV, the protein stability index worked out at 1.46. The value for FLGHHSFSVRPCTEATISIREDEV was 2.24; that for FLGHHSFSVRPHTEATISIREDEV was 1.81; that for FLGHHSFSVRPLTEATISIREDEV was 1.71.

With FLGHHSFSVRPYTEATISIREDEV, the protein stability index was found to be 1.15.

FLGHHSFSVRPDTEATISIREDEV: the protein stability index was 2.35.

Take FLGHHSFSVRPSTEATISIREDEV: the protein stability index was 1.55.

On to FLGHHSFSVRPGTNATISIREDEV, for which the protein stability index is 1.82. In the case of FLGHHSFSVRPGTHATISIREDEV, the protein stability index worked out at 2.11. With FLGHHSFSVRPGTTATISIREDEV the figure was 2.24; with FLGHHSFSVRPGTQATISIREDEV, 2.13. For FLGHHSFSVRPGTGATISIREDEV, the protein stability index stood at 2.31.

Turning to FLGHHSFSVRPGTKATISIREDEV, the protein stability index is 1.93. The value for FLGHHSFSVRPGTFATISIREDEV was 1.37; that for FLGHHSFSVRPGTPATISIREDEV was 1.76. The value for FLGHHSFSVRPGTSATISIREDEV was 1.77. As for FLGHHSFSVRPGTVATISIREDEV, the protein stability index came out at 2.18. With FLGHHSFSVRPGTMATISIREDEV the figure was 1.25; with FLGHHSFSVRPGTDATISIREDEV, 1.13; with FLGHHSFSVRPGTAATISIREDEV, 1.92.

As to FLGHHSFSVRPGTYATISIREDEV, the protein stability index came to 1.19.

Consider FLGHHSFSVRPGTIATISIREDEV, for which the protein stability index was 1.77. With FLGHHSFSVRPGTLATISIREDEV the figure was 1.92; with FLGHHSFSVRPGTRATISIREDEV, 2.1. The value for FLGHHSFSVRPGTCATISIREDEV was 1.65. The value for FLGHHSFSYRPGTEATISIREDEV was 2.84; that for FLGHHSFSSRPGTEATISIREDEV was 2.12; that for FLGHHSFSIRPGTEATISIREDEV was 2.26. Turning to FLGHHSFSRRPGTEATISIREDEV, the protein stability index was determined as 3.8. For the variant FLGHHSFSFRPGTEATISIREDEV, the protein stability index came out at 2.33. With FLGHHSFSHRPGTEATISIREDEV the figure was 3.09; with FLGHHSFSQRPGTEATISIREDEV, 2.86. The value for FLGHHSFSCRPGTEATISIREDEV was 2.08; that for FLGHHSFSMRPGTEATISIREDEV was 2.42. With FLGHHSFSLRPGTEATISIREDEV the figure was 2.15. Take FLGHHSFSERPGTEATISIREDEV: the protein stability index was found to be 2.83. With FLGHHSFSGRPGTEATISIREDEV the figure was 3.44; with FLGHHSFSPRPGTEATISIREDEV, 2.18. The value for FLGHHSFSKRPGTEATISIREDEV was 2.83; that for FLGHHSFSDRPGTEATISIREDEV was 3.54. The value for FLGHHSFSNRPGTEATISIREDEV was 2.6. In the case of FLGHHSFSTRPGTEATISIREDEV, the protein stability index was determined as 2.29. With FLGHHSFSWRPGTEATISIREDEV the figure was 1.64; with FLGHHSFSARPGTEATISIREDEV, 2.36; with FLGHHSFSVRPGTEGTISIREDEV, 2.01. With FLGHHSFSVRPGTEETISIREDEV the figure was 1.93; with FLGHHSFSVRPGTECTISIREDEV, 2.34; with FLGHHSFSVRPGTEFTISIREDEV, 2.62. The value for FLGHHSFSVRPGTEHTISIREDEV was 1.67; that for FLGHHSFSVRPGTEDTISIREDEV was 2.08. In the case of FLGHHSFSVRPGMEATISIREDEV, the protein stability index stood at 1.73. With FLGHHSFSVRPGFEATISIREDEV the figure was 1.91; with FLGHHSFSVRPGKEATISIREDEV, 2.37.

Consider FLGHHSFSVRPGDEATISIREDEV, for which the protein stability index is 1.63. With FLGHHSFSVRPGQEATISIREDEV the figure was 1.97; with FLGHHSFSVRPGCEATISIREDEV, 1.58. The value for FLGHHSFSVRPGHEATISIREDEV was 2.03. With FLGHHSFSVRPGPEATISIREDEV the figure was 1.88; with FLGHHSFSVRPGAEATISIREDEV, 1.77; with FLGHHSFSVRPGSEATISIREDEV, 1.18. Consider FLGHHSFSVRPGREATISIREDEV, for which the protein stability index came to 1.7. As for FLGHHSFSVRPGGEATISIREDEV, the protein stability index is 1.25. With FLGHHSFSVRPGEEATISIREDEV the figure was 2.09.

(Values after the supplement of paper PMC10567573.)
